Tests used:
[1] = biological target: T1, CXCL11 (Homo sapiens, UniProt O14625); assay: ELISA
T1 chain: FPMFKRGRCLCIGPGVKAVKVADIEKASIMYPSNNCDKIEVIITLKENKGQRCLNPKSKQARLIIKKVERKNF

[2] = biological target: CXCL10 (Homo sapiens, UniProt P02778); assay: ELISA
Chain of CXCL10 (P02778 22-94): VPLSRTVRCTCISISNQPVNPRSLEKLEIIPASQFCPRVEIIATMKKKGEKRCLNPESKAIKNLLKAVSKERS

B1: Fg β15-66 15-66 (protein)
chain: MKHLLLLLLCVFLVKSQGVNDNEEGFFSARGHRPLDKKREEAPSLRPAPPPI
B1 was tested, and the Kd [1] was 67 nM and the Kd [2] was 68 nM.

Reference: paper PMC3808276 (2013)
